Test results published in patent publication US20020164696.

Tests used:
[1] = target: T1, synthetic peptide corresponding to bovine kappa-CN
T1 chain: HPHPHLSXMAI

[2] = target: T2, synthetic peptide corresponding to camel kappa-CN
T2 chain: RPRPRPSXIAI

B1: recombinant Camelus dromedarius chymosin (protein)
chain: GKVAREPLTSYLDSQYFGKIYIGTPPQEFTVVFDTGSSDLWVPSIYCKSNVCKNHHRFDPRKSSTFRNLGKPLSIHYGTGSMEGFLGYDTVTVSNIVDPNQTVGLSTEQPGEVFTYSEFDGILGLAYPSLASEYSVPVFDNMMDRHLVARDLFSVYMDRNGQGSMLTLGAIDPSYYTGSLHWVPVTLQQYWQFTVDSVTINGVAVACVGGCQAILDTGTSVLFGPSSDILKIQMAIGATENRYGEFDVNCGNLRSMPTVVFEINGRDYPLSPSAYTSKDQGFCTSGFQGDNNSELWILGDVFIREYYSVFDRANNRVGLAKAI
- KM for Bt κ-CN [1]: 0.077 ± 0.019/-0.015 mM
- kcat for Bt κ-CN [1]: 11.7 ± 1.5/-1.2 s^-1
- KM for Cd κ-CN [2]: 0.056 ± 0.035/-0.021 mM
- kcat for Cd κ-CN [2]: 5.1 ± 1.7/-1.0 s^-1

B2: recombinantly produced bovine chymosin, ChyMax (protein)
chain: GEVASVPLTNYLDSQYFGKIYLGTPPQEFTVLFDTGSSDFWVPSIYCKSNACKNHQRFDPRKSSTFQNLGKPLSIHYGTGSMQGILGYDTVTVSNIVDIQQTVGLSTQEPGDVFTYAEFDGILGMAYPSLASEYSIPVFDNMMNRHLVAQDLFSVYMDRNGQESMLTLGAIDPSYYTGSLHWVPVTVQQYWQFTVDSVTISGVVVACEGGCQAILDTGTSKLVGPSSDILNIQQAIGATQNQYGEFDIDCDNLSYMPTVVFEINGKMYPLTPSAYTSQDQGFCTSGFQSENHSQKWILGDVFIREYYSVFDRANNLVGLAKAI
- KM for Bt κ-CN [1]: 0.165 ± 0.015/-0.014 mM
- kcat for Bt κ-CN [1]: 44.3 s⁻¹
- KM for Cd κ-CN [2]: 0.134 ± 0.022/-0.021 mM
- kcat for Cd κ-CN [2]: 4.3 s⁻¹
